Values of other authors in paper PMC3324669.

Biological target: CD155 (Homo sapiens) (UniProt P15151)
UniProt P15151, sequence (P15151 21-343): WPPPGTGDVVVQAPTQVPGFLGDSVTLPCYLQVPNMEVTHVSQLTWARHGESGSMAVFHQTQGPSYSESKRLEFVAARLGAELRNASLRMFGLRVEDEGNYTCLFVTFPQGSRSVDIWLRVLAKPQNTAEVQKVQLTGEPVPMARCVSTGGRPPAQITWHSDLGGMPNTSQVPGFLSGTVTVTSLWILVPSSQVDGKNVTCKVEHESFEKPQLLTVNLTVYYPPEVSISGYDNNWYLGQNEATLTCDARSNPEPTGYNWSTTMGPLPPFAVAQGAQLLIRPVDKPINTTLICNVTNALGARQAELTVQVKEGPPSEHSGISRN

Substance: CD226 (from UniProt Q15762)
- Kd: 2 nM
